Measurements taken from PMC5721652, “Nanobodies targeting conserved epitopes on the major outer membrane protein of Campylobacter as potential tools for control of Campylobacter colonization” (Veterinary Research, 2017).

B1: Nb49, His-tagged (VHH)
VHH: QVQLQESGGGLVQPGWSLRLSCAASSIFEINAMGWYRQPPGKQRERVATITDGFGTNYADSVKGRFTISRDNAKNTVYLQMNSLRPEDTAVYYCSAQRTVPYKMTYWGQGTQVTVSS
notes: Cloned in pHen6C; one of the six nanobodies with broad specificity; also called anti-Campylobacter nanobody; not shown: His-tag, C-terminal, kept
B2: Nb24, His-tagged (VHH)
VHH: QVQLQESGGGLVQPGGSLRLSCAASGRTFSRFSDNYVMGWFRQAPGKEREVVGAIRWSVASTYYADFVKGRFTISRDSAMNTMYLQMNNLKPEDTAVYYCATKFSGPINGGQTSYNYWGQGTQVTVSS
notes: as for B1
B3: Nb23, His-tagged (VHH)
VHH: QVQLQESGGGLVQPGGSLRLSCAASGTIDNFNGMGWYRQAPGKQREWLARITMNGRTIYAESVEGRFTISRDKVKNTLALQMNSLKPEDTAVYYCNARGVLTPRGIHDYWGQGTQVTVSS
notes: as for B1
B4: Nb84, fluorescently labelled (VHH)
VHH: QVQLQESGGGLVQAGGSLRLSCKASGTIISINNMGWYRRSPGKERDMVARIFSSGTINYTDSVKGRFTISRDNAKNTVYLEMNSLKPEDTAIYYCNARLTTTAMGTIPNSWGQGTQVTVSS
notes: as the VHH of m7; probably the C-terminally His-tagged one; also called fluorescently labelled Nb84; labelled Nb84; source: E. coli, purified; labelled with Dylight 650 NHS Ester
B5: Nb22, fluorescently labelled (VHH)
VHH: QVQLQESGGGLVQPGGSLRLSCAVSRTIFNFNNMGWYRQPPGKPRELVARITMNGRTDYADPVKGRFTISRDSAKNTLALQMNDLKGDDTAVYYCAARGAVRTGNLMPTDYWGQGTQVTVSS
notes: as the VHH of m3; probably the C-terminally His-tagged one; also called fluorescently labelled Nb22; source: E. coli, purified; labelled with Dylight 650 NHS Ester
B6: Nb32, strep-tagged (VHH)
VHH: QVQLQESGGGLVQAGDSLRLSCAASGGTFSNYVLGWFRQAPGKEREFVAAIRWSGERTYYADSVKGRFTISSDNAKYRQVTVYLEMNSLKPEDTAVYYCAARAPNYYSDSQPPVTLSEYKVWGQGTQVTVSS
notes: as the VHH of m9; also called strep-tagged Nb32; source: E. coli, purified (StrepTrap HP); not shown: strep-tag, C-terminal, kept
B7: Nb48, strep-tagged (VHH)
VHH: QVQLQESGGGSVQAGESLRLACAASGSILSINIMRWYRQAPGKQRELVATIGRSGNTDLADFAKGRFTGSRDNGKNTVYLQMNNLKPEDTAVYYCNALLTTLSAQTGVYWGQGTQVTVSS
notes: as the VHH of m12; also called strep-tagged Nb48; source: E. coli, purified (StrepTrap HP); not shown: strep-tag, C-terminal, kept
B8: Nb49, strep-tagged (VHH)
VHH: QVQLQESGGGLVQPGWSLRLSCAASSIFEINAMGWYRQPPGKQRERVATITDGFGTNYADSVKGRFTISRDNAKNTVYLQMNSLRPEDTAVYYCSAQRTVPYKMTYWGQGTQVTVSS
notes: as the VHH of m6; also called strep-tagged Nb49; source: E. coli, purified (StrepTrap HP); not shown: strep-tag, C-terminal, kept
B9: Nb24, strep-tagged (VHH)
VHH: QVQLQESGGGLVQPGGSLRLSCAASGRTFSRFSDNYVMGWFRQAPGKEREVVGAIRWSVASTYYADFVKGRFTISRDSAMNTMYLQMNNLKPEDTAVYYCATKFSGPINGGQTSYNYWGQGTQVTVSS
notes: as the VHH of m5; also called strep-tagged Nb24; source: E. coli, purified (StrepTrap HP); not shown: strep-tag, C-terminal, kept
B10: Nb34, strep-tagged (VHH)
VHH: QVQLQESGGGLVQAGGSLRLSCAASGRTSSSYAMGWFRQAPGKEREFVTAISWNGSKAYYSDSVKGRFTISRDNAKNTVYLQMNSLKPEDTAVYYCAQGAYRVVADPGEYDYWGQGTQVTVSS
notes: as the VHH of m10; also called strep-tagged Nb34; source: E. coli, purified (StrepTrap HP); not shown: strep-tag, C-terminal, kept
B11: Nb45, strep-tagged (VHH)
VHH: QVQLQESGGGLVQAGGSLRLACVASSTIFSINNMAWYRQAPGKQRELVARITAGGNTNYADSVKGRFTISKDKGKNTVRLQMNSLKPEDTGVYYCKCGGCGTPYSLSEDYWGQGTQVTVSS
notes: as the VHH of m11; also called strep-tagged Nb45; source: E. coli, purified (StrepTrap HP); not shown: strep-tag, C-terminal, kept
B12: Nb23, strep-tagged (VHH)
VHH: QVQLQESGGGLVQPGGSLRLSCAASGTIDNFNGMGWYRQAPGKQREWLARITMNGRTIYAESVEGRFTISRDKVKNTLALQMNSLKPEDTAVYYCNARGVLTPRGIHDYWGQGTQVTVSS
notes: as the VHH of m4; also called strep-tagged Nb23; source: E. coli, purified (StrepTrap HP); not shown: strep-tag, C-terminal, kept
B13: Nb5, strep-tagged (VHH)
VHH: QVQLQESGGGLVQAGGSLRLSCAASGTIISLNSMGWYRQAPGKQRELVAALTSGGTTNYADSVKGRFTISRVNAKNTVYLQMNSLKPEDTAVYYCNAKLITTAQGMVLASWGQGTQVTVSS
notes: as the VHH of m2; the printed oligo encodes the tag directly after the end of the nanobody; also called strep-tagged Nb5; source: E. coli, purified (StrepTrap HP); not shown: strep-tag, C-terminal, kept
B14: Nb15, strep-tagged (VHH)
VHH: QVQLQESGGGLVQPGGSLRLSCAASGRTFRSYDMGWFRQAPGKEREFVAASAWSAGRTIYKNSVKGRFTISRDNTKDTMYLQMNDLKPEDTAVYFCAADRNPPPIYNEFYYYRASAYDYWGQGTQVTVSS
notes: as the VHH of m8; also called strep-tagged Nb15; source: E. coli, purified (StrepTrap HP); not shown: strep-tag, C-terminal, kept
B15: Nb63, strep-tagged (VHH)
VHH: QVQLQESGGGLVQPGGSLRLSCVASGSTFAINVMGWYRRAPGKQRELVATVTSGSTTYSRVRSSDTTYADSVKGRFTISRDNAKNMVYLQMNSLKPEDTAVYYCNARTRNTIATSDGMDYWGKGTQVTVSS
notes: as the VHH of m13; also called strep-tagged Nb63; source: E. coli, purified (StrepTrap HP); not shown: strep-tag, C-terminal, kept
B16: Nb32, His-tagged (VHH)
VHH: QVQLQESGGGLVQAGDSLRLSCAASGGTFSNYVLGWFRQAPGKEREFVAAIRWSGERTYYADSVKGRFTISSDNAKYRQVTVYLEMNSLKPEDTAVYYCAARAPNYYSDSQPPVTLSEYKVWGQGTQVTVSS
notes: One of the six nanobodies with less broad specificity; also called anti-Campylobacter nanobody; not shown: His-tag, C-terminal, kept
B17: Nb48, His-tagged (VHH)
VHH: QVQLQESGGGSVQAGESLRLACAASGSILSINIMRWYRQAPGKQRELVATIGRSGNTDLADFAKGRFTGSRDNGKNTVYLQMNNLKPEDTAVYYCNALLTTLSAQTGVYWGQGTQVTVSS
notes: One of the six nanobodies with less broad specificity; its name is printed only in the legend of Additional file 5; also called anti-Campylobacter nanobody; not shown: His-tag, C-terminal, kept
B18: Nb34, His-tagged (VHH)
VHH: QVQLQESGGGLVQAGGSLRLSCAASGRTSSSYAMGWFRQAPGKEREFVTAISWNGSKAYYSDSVKGRFTISRDNAKNTVYLQMNSLKPEDTAVYYCAQGAYRVVADPGEYDYWGQGTQVTVSS
notes: as for B16
B19: Nb45, His-tagged (VHH)
VHH: QVQLQESGGGLVQAGGSLRLACVASSTIFSINNMAWYRQAPGKQRELVARITAGGNTNYADSVKGRFTISKDKGKNTVRLQMNSLKPEDTGVYYCKCGGCGTPYSLSEDYWGQGTQVTVSS
notes: as for B16
B20: Nb15, His-tagged (VHH)
VHH: QVQLQESGGGLVQPGGSLRLSCAASGRTFRSYDMGWFRQAPGKEREFVAASAWSAGRTIYKNSVKGRFTISRDNTKDTMYLQMNDLKPEDTAVYFCAADRNPPPIYNEFYYYRASAYDYWGQGTQVTVSS
notes: as for B17
B21: Nb63, His-tagged (VHH)
VHH: QVQLQESGGGLVQPGGSLRLSCVASGSTFAINVMGWYRRAPGKQRELVATVTSGSTTYSRVRSSDTTYADSVKGRFTISRDNAKNMVYLQMNSLKPEDTAVYYCNARTRNTIATSDGMDYWGKGTQVTVSS
notes: as for B17
B22: Nb5, His-tagged (VHH)
VHH: QVQLQESGGGLVQAGGSLRLSCAASGTIISLNSMGWYRQAPGKQRELVAALTSGGTTNYADSVKGRFTISRVNAKNTVYLQMNSLKPEDTAVYYCNAKLITTAQGMVLASWGQGTQVTVSS
notes: as for B1

Each binder was assayed against T1, major outer membrane protein (MOMP) of Campylobacter jejuni KC40 (Campylobacter jejuni KC40 (stand-in: …, UniProt P80672, strain)) (assay: far-Western, overlay or dot blot; purified MOMP run on a non-denaturing gel, transferred to PVDF, incubated with 5 µg/mL His-tagged nanobody for 1 h at 4 °C, detected with anti-Histidine tag antibody). Settings: both partners purified.
T1 construct: major outer membrane protein (MOMP, porA) of C. jejuni strain KC40; the printed entry P80672 is that of strain NCTC 11168, to which the peptides of the pull-down matched; The legends call the purified protein a MOMP monomer; the introduction describes MOMP as a trimeric porin; Kept in 0.6% octyl-POE after purification; also called purified MOMP monomer; native MOMP; source: purified from C. …

**Q.** Does B1 bind?
**A.** Result: binds

**Q.** Does B2 bind?
**A.** Result: binds

**Q.** Does B3 bind?
**A.** Result: binds

What follows are binders tested against T1, major outer membrane protein (MOMP) of … (assay: MST; saturation: Dylight 650 labelled nanobody constant at 32 nM, twofold serial dilutions of MOMP from 0.3 nM to 5.0 µM; 20 mM sodium phosphate pH 7.6, 150 mM NaCl, 0.6% octyl-POE). Settings: both partners purified.

**Q.** How did the Kd turn out when B4 was run?
**A.** Its Kd is 422 ± 159 nM.

**Q.** Which Kd does the source give for B5 here?
**A.** Its Kd is 118 ± 48 nM.

What follows are binders tested against T1, major outer membrane protein (MOMP) of … (assay: ELISA; competition: MOMP coated at 1 µg/mL; serial dilutions of strep-tagged nanobody and a constant 5 x 10^-2 µg/mL of His-tagged Nb84 added simultaneously; bound His-tagged Nb84 detected with anti-Histidine tag antibody). Settings: both partners purified.

**Q.** Does B6 bind?
**A.** Result: binds

**Q.** Does B7 bind?
**A.** Result: binds

**Q.** Does B8 bind?
**A.** Result: binds

**Q.** Does B9 bind?
**A.** Result: binds

**Q.** Does B10 bind?
**A.** Result: binds

**Q.** Does B11 bind?
**A.** Result: binds

**Q.** Does B12 bind?
**A.** Result: binds

**Q.** Does B13 bind?
**A.** Result: binds

**Q.** Does B14 bind?
**A.** Result: binds

**Q.** Does B15 bind?
**A.** Result: binds

These binders were tested against T1, major outer membrane protein (MOMP) of … (assay: ELISA; purified MOMP coated at 1 µg/mL; His-tagged nanobody at 50 µg/mL, or tenfold serial dilutions of His-tagged Nb84 (saturation binding); detected with anti-Histidine tag antibody). Settings: both partners purified.

**Q.** Does B16 bind?
**A.** Result: binds

**Q.** Does B17 bind?
**A.** Result: binds

**Q.** Does B18 bind?
**A.** Result: binds

**Q.** Does B19 bind?
**A.** Result: binds

**Q.** Does B20 bind?
**A.** Result: binds

**Q.** Does B21 bind?
**A.** Result: binds

Each binder was assayed against T1, major outer membrane protein (MOMP) of … (assay: pull-down; His-tagged nanobody (20 µL of 1.0 mg/mL) mixed with 500 µL outer membrane proteins of C. jejuni KC40 (1.2 mg/mL), 2 h at 4 °C, captured overnight at 4 °C on Co2+-coated Dynabeads; eluted band cut from a silver-stained gel and identified by LC-MS/MS). Settings: one partner purified.

**Q.** Does B22 bind?
**A.** Result: binds
